Laboratory results reported in IntAct's records for PubMed 22596162.

B1: E3 ubiquitin-protein ligase RLIM (Mus musculus), Q9WTV7 (parent)
chain: MENSDSNDKGSDQSAAQRRSQMDRLDREEAFYQFVNNLSEEDYRLMRDNNLLGTPGESTEEELLRRLQQIKEGPPPQSPDENRAGESSDDVTNSDSIIDWLNSVRQTGNTTRSGQRGNQSWRAVSRTNPNSGDFRFSLEINVNRNNGSQTSENESEPSTRRLSVENMESSSQRQMENSASESASARPSRAERNSAEAVTEVPTTRAQRRARSRSPEHRRTRARAERSRSPLQPTSEIPRRAPTLEQSSENEPEGSSRTRHHVTLRQQISGPELLGRGLFAASGSRNPSQGTSSSDTGSNSESSGSGQRPPTIVLDLQVRRVRPGEYRQRDSIASRTRSRSQAPNNTVTYESERGGFRRTFSRSERAGVRTYVSTIRIPIRRILNTGLSETTSVAIQTMLRQIMTGFGELSYFMYSDSDSEPSASVSSRNVERVESRNGRGSSGGGNSSGSSSSSSPSPSSSGESSESSSEMFEGSSEGGSSGPSRRDGRHRAPVTFDESGSLPFLSLAQFFLLNEDDEDQPRGLTKEQIDNLAMRSFGENDALKTCSVCITEYTEGNKLRKLPCSHEYHVHCIDRWLSENSTCPICRRAVLSSGNRESVV

Variants of: B1
Conditions: with zfp42_mouse Zfp42, P22227
Sequence of zfp42_mouse Zfp42, P22227 (P22227 whole entry): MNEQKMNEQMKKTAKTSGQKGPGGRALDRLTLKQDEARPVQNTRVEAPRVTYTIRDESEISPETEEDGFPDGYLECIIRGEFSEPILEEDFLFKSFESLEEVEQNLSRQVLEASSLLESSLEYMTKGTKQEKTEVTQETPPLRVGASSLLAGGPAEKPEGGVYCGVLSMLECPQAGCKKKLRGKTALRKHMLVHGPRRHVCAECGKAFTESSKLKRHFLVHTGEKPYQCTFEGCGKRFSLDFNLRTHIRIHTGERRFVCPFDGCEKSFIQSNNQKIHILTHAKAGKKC

Variant	effect of a mutation on the interaction
MENSDSNDKGSDQSAAQRRSQMDRLDREEAFYQFVNNLSEEDYRLMRDNNLLGTPGESTEEELLRRLQQIKEGPPPQSPDENRAGESSDDVTNSDSIIDWLNSVRQTGNTTRSGQRGNQSWRAVSRTNPNSGDFRFSLEINVNRNNGSQTSENESEPSTRRLSVENMESSSQRQMENSASESASARPSRAERNSAEAVTEVPTTRAQRRARSRSPEHRRTRARAERSRSPLQPTSEIPRRAPTLEQSSENEPEGSSRTRHHVTLRQQISGPELLGRGLFAASGSRNPSQGTSSSDTGSNSESSGSGQRPPTIVLDLQVRRVRPGEYRQRDSIASRTRSRSQAPNNTVTYESERGGFRRTFSRSERAGVRTYVSTIRIPIRRILNTGLSETTSVAIQTMLRQIMTGFGELSYFMYSDSDSEPSASVSSRNVERVESRNGRGSSGGGNSSGSSSSSSPSPSSSGESSESSSEMFEGSSEGGSSGPSRRDGRHRAPVTFDESGSLPFLSLAQFFLLNEDDEDQPRGLTKEQIDNLAMRSFGENDALKTCSVCITEYTEGNKLRKLPCSHEYAVHAIDRWLSENSTCPICRRAVLSSGNRESVV [H569A;C572A]	with no effect
